Experimental data taken from article PMC12373997.
Substitutions are numbered along the chain they refer to. Names and notes keep the numbering of the source.

B1: D. melanogaster augmin N-clamp with Dgt6^3A-mut (K82A, R88A, K96A) (complex)
chain 1: MSDAVDKMLAGMAANRQTMNRQLAKIDEIMERSNNTLLHIESNSKAFSQNVALSETQKMYNLRPEAEMTLSKILENFKLLMSSSDQREETYSALEGCLAYRHRVEHLGSSVRKLVALYDTVGQMKNSQEEQYASEDSP
chain 2: MDRTIIAPWKAEEKEQSEKLHRKLQGLALVHPLPDELRKLIAWDMFLKPNQVAFVHVMHYLFRLLDPAEFKRRFFWPITDKASEANFASSTVEYLAHLNEKHQLHWANIKSYLVVMPGGMRFINFLLEFVGFVIQELIKQREKSLGLEAGTPNVSAKVMARQNAVMKEYASSYVVNLEENTALLRDKTQKIRRLMADLSADMGVPEEQLADDGFLDEFEATAALGVERVITQPTERKFDLEASLCGLKEAIDLFQVKQAENNQSKEAVEKALRGMRVLFDCDAVTEGDFYDPLGASKMDALLNGFNRISGTIAEQLDANDHYNESNAFVTTDLQALRVELSQSEVQLNNLLKKLNEPSKKDKGSANASGSARVQTLQPATPRFESVISSKFVSTPPIRIDMGGGGGRNAPVRLALQDDFNGKQFDALSNSLLAPAPPRSARKLKALDQSTGIDLNGTLNRSKINDPMQMLRTIHKNTSKVKAAPQANLSSLGSKWKQMQASFGFDEAPVPGAAVISPQTSPTDPSDPFTPLSGSECTRIERIPRTSENNTSLIAKSAAVIKVLEVSRNVLNLSTSPSGRLDALVPHTESHQQDVAPRLQLNDRTINDSLQLDPDFNIENDKNAFNVSHKFDFDQIGGEDDLQNISDSVLKDIIF
chain 3: METNVDFSSISSKLYRKYAQHVRNLKDVCVSKTVMKPGAFFDSLQQMMEEEAAATTPPRDLSSVADYAELFKTLEEYPANLQKMPKKRELQRTNSTLLRGADESVAMGINTSNVSLSLTRLEEQRSAVDVYNDFKGFQRKLAKIYDEAAALDTTESIYKQKLTQLHGFAQQLEKLMPTGGESPPDAFTSEQQEKLLTIAANMEQLNYLRSNSLQLPNPNEILATGSLAARLEMFVEVLTYTLLQVSSYNMAMI
chain 4: METPPTPTTTTPPSLTTEGTMDDIQYLLHLEAMRRFQEDSRNVKRQVEEQVRIWLDAKCEYQRDFGRLARLLKCGALQAAVDAHRVSDVNQVDQAAKDIASLRSKLGSDLRPAILDSNDVKQCLEHLNTTHKPRLNLCRQQREFAQNQEALRSLRTAVDGLENGMEMGMIQAMDRLVEDLLPPRETNN
B2: D. melanogaster augmin N-clamp, wild type (Msd1, Dgt6, Msd5-EGFP-HIS8, Dgt4-HIS8) (complex)
chain 1: B1 chain 1
chain 2: B1 chain 2 with A82K, A88R, A96K
chain 3: B1 chain 3
chain 4: B1 chain 4
B3: D. melanogaster augmin N-clamp with Msd5^Δ81–93 (loop deletion) (complex)
chain 1: B1 chain 1
chain 2: B1 chain 2 with A82K, A88R, A96K
chain 3: METNVDFSSISSKLYRKYAQHVRNLKDVCVSKTVMKPGAFFDSLQQMMEEEAAATTPPRDLSSVADYAELFKTLEEYPANNSTLLRGADESVAMGINTSNVSLSLTRLEEQRSAVDVYNDFKGFQRKLAKIYDEAAALDTTESIYKQKLTQLHGFAQQLEKLMPTGGESPPDAFTSEQQEKLLTIAANMEQLNYLRSNSLQLPNPNEILATGSLAARLEMFVEVLTYTLLQVSSYNMAMI
chain 4: B1 chain 4

Target: Taxol-stabilized microtubules polymerised from purified porcine brain tubulin (porcine) (UniProt P02550)
Assay: co-sedimentation; tubulin co-sedimentation: taxol-stabilized MTs (varied, α/β-tubulin heterodimer molarity) with 1 µM purified N-clamp, 0.25 mg/ml BSA, BRB80-MT buffer (80 mM PIPES, 1 mM MgCl2, 1 mM EGTA, 12.5% glycerol, pH 6.8), 20 min at room temperature, 200,000 g 10 min 27 °C; SDS-PAGE densitometry of pellet; apparent Kd from a quadratic fit

| Kd [nM] | Binder |
| --- | --- |
| 25500 | B1 |
| 400 | B2 |
| 1000 | B3 |
